In article PMC7755911 (Scientific Reports, 2020):

Tests used:
Settings in all cases: both partners purified
[1] = target: Biotinylated SARS-CoV-2 S protein RBD with a C-terminal AviTag (SARS-CoV-2, canonical (Wuhan-Hu-1) …, UniProt P0DTC2, biotinylated); test: BLI
[2] = target: T1, Horse radish peroxidase conjugated RBD (GenScript SARS-CoV-2 Neutralization Antibody Detection Kit) (SARS-CoV-2, UniProt P0DTC2); test: ELISA
T1 construct: source: bought: GenScript (kit L00847)

[3] = target: SARS-CoV-2 RBD (cross-reactivity experiments) (SARS-CoV-2, UniProt P0DTC2); test: ELISA
[4] = target: SARS-CoV-2 Receptor Binding Domain (RBD) (SARS-CoV-2, UniProt P0DTC2); test: SPR

B1: VHH72 (VHH)
VHH: QVQLQESGGGLVQAGGSLRLSCAASGRTFSEYAMGWFRQAPGKEREFVATISWSGGSTYYTDSVKGRFTISRDNAKNTVYLQMNSLKPDDTAVYYCAAAGLGTVVSEWDYDYDYWGQGTQVTVSS
binding result [1]: binds

B2: NIH-CoVnb-112 (VHH)
VHH: DVQLQESGGGLVQPGGSLRLSCAASGLTLDYYAIGWFRQAPGKEREGVSCISSSDGSTYYADSVKGRFTTSRDNAKNTVYLQMNSLKPEDTAVYYCAAVPSTYYSGTYYYTCHPGGMDYWGKGTQVTVSS
notes: also called lead nanobody candidate; anti-SARS-CoV-2 RBD nanobody; source: E. coli BL21 (DE3), periplasm by osmotic shock, purified (HisTrap, Superdex 75)
binding result [2]: binds
binding result [3]: binds
Kd [4]: 2.1 nM
